The text below walks through data of patent US20250369983A1.

The target of this experiment is full length gp41 HIV protein (Abcam) (human immunodeficiency virus-1 (HIV-1)). Kind of experiment: ELISA titration: plates coated with 1 µg/mL antigen, 2F5 in 4-fold dilutions; y axis without label (absorbance).

Regarding “2F5, broadly neutralizing human monoclonal antibody (Polymun Scientific)”, the EC50 (read off the curve) is 0.1 µg/mL.
